Measured values taken from patent publication US20130045922A1 (CHILDREN S MEDICAL CENTER, published 2013).

Molecular target: I^125-VEGF
Assay: cell-based or functional assay

I^125-VEGF, sequence (P15692 whole entry): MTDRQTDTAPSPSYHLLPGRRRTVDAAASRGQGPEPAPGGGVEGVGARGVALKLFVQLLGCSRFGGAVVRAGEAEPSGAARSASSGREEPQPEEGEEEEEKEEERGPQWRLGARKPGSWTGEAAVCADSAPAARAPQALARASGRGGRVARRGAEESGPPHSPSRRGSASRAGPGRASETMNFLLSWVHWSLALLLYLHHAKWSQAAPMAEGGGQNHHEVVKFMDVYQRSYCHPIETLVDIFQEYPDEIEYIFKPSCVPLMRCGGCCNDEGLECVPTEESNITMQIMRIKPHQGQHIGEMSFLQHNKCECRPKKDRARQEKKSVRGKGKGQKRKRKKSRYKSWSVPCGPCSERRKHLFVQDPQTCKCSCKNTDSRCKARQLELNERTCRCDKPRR

**Q.** How did the “ability of endothelial cells to bind VEGF in the presence of peptide” value turn out when DRVQAQTTTVVA [Ala-5 (DRVQAQTTTVVA)] was run?
**A.** > 2 fold over original #237
